For 21 molecules, EC50 results are on record in US20180362632A1 (published 2018).

In general, EC50 refers to the concentration that produces a half-maximal response.

First the molecules themselves.
B1: Hu23F4-18 (antibody, V domains shown)
VH: EVQLVQSGAEVKKPGATVKISCKVSDYTLTSHYLHWVQQAPGKGLEWIGWIFPGDDKTKYNEKFKGRATLTSDTSTDTAYMELSSLRSEDTAVYYCARGTKYLNWNFDVWGQGTTVTVSS
VL: DIQLTQSPSFLSASVGDRVTITCKANQNVGTTLAWYQQKPGKAPKALIYSASYRYSGVPSRFSGSGSGTEFTLTISSLQPEDFATYYCHQYTTYPLTFGGGTKVEIK
B2: Hu23F4-1 (antibody, V domains shown)
VH: EVQLVQSGAEVKKPGATVKISCKVSGYTFTSHYLHWVQQAPGKGLEWMGWIFPGDDKTKYNEKFKGRVTITADTSTDTAYMELSSLRSEDTAVYYCARGTKYLNWNFDVWGQGTTVTVSS
VL: DIQLTQSPSFLSASVGDRVTITCKANQNVGTTLAWYQQKPGKAPKLLIYSASYRYSGVPSRFSGSGSGTEFTLTISSLQPEDFATYYCHQYTTYPLTFGGGTKVEIK
B3: Hu23F4-21 (antibody, V domains shown)
VH: EVQLVQSGAEVKKPGASVKVSCKASGYTFTSHYLHWVRQAPGQGLEWMGWIFPGDDKTKYNEKFKGRVTMTRDTSISTAYMELSRLRSDDTAVYYCARGTKYLNWNFDVWGQGTTVTVSS
VL: DIQLTQSPSFLSASVGDRVTITCKANQNVGTTLAWYQQKPGKAPKALIYSASYRYSGVPSRFSGSGSGTEFTLTISSLQPEDFATYYCHQYTTYPLTFGGGTKVEIK
B4: Hu23F4-10 (antibody, V domains shown)
VH: EVQLVQSGAEVKKPGATVKISCKVSGYTFTSHYLHWVQQAPGKGLEWMGWIFPGDDKTKYNEKFKGRATLTSDTSTDTAYMELSSLRSEDTAVYYCARGTKYLNWNFDVWGQGTTVTVSS
VL: DIQLTQSPSFLSASVGDRVTITCKANQNVGTTLAWYQQKPGKAPKALIYSASYRYSGVPSRFSGSGSGTEFTLTISSLQPEDFATYYCHQYTTYPLTFGGGTKVEIK
B5: Hu23F4-11 (antibody, V domains shown)
VH: EVQLVQSGAEVKKPGATVKISCKVSGYTFTSHYLHWVQQAPGKGLEWMGWIFPGDDKTKYNEKFKGRATLTSDTSTDTAYMELSSLRSEDTAVYYCARGTKYLNWNFDVWGQGTTVTVSS
VL: DIQLTQSPSFLSASVGDRVTITCKANQNVGTTLAWYQQKPGKAPKALIYSASYRYSGVPDRFSGSGSGTDFTLTISSLQPEDFATYYCHQYTTYPLTFGGGTKVEIK
B6: Hu23F4-22 (antibody, V domains shown)
VH: EVQLVQSGAEVKKPGASVKVSCKASGYTFTSHYLHWVRQAPGQGLEWMGWIFPGDDKTKYNEKFKGRVTMTRDTSISTAYMELSRLRSDDTAVYYCARGTKYLNWNFDVWGQGTTVTVSS
VL: DIQLTQSPSFLSASVGDRVTITCKANQNVGTTLAWYQQKPGKAPKALIYSASYRYSGVPDRFSGSGSGTDFTLTISSLQPEDFATYYCHQYTTYPLTFGGGTKVEIK
B7: Hu23F4-9 (antibody, V domains shown)
VH: EVQLVQSGAEVKKPGATVKISCKVSGYTFTSHYLHWVQQAPGKGLEWMGWIFPGDDKTKYNEKFKGRATLTSDTSTDTAYMELSSLRSEDTAVYYCARGTKYLNWNFDVWGQGTTVTVSS
VL: DIQLTQSPSFLSASVGDRVTITCKANQNVGTTLAWYQQKPGKAPKLLIYSASYRYSGVPSRFSGSGSGTEFTLTISSLQPEDFATYYCHQYTTYPLTFGGGTKVEIK
B8: Hu23F4-13 (antibody, V domains shown)
VH: EVQLVQSGAEVKKPGATVKISCKVSGYTFTSHYLHWVQQAPGKGLEWIGWIFPGDDKTKYNEKFKGRATLTSDTSTDTAYMELSSLRSEDTAVYYCARGTKYLNWNFDVWGQGTTVTVSS
VL: DIQLTQSPSFLSASVGDRVTITCKANQNVGTTLAWYQQKPGKAPKLLIYSASYRYSGVPSRFSGSGSGTEFTLTISSLQPEDFATYYCHQYTTYPLTFGGGTKVEIK
B9: Hu23F4-19 (antibody, V domains shown)
VH: EVQLVQSGAEVKKPGATVKISCKVSDYTLTSHYLHWVQQAPGKGLEWIGWIFPGDDKTKYNEKFKGRATLTSDTSTDTAYMELSSLRSEDTAVYYCARGTKYLNWNFDVWGQGTTVTVSS
VL: DIQLTQSPSFLSASVGDRVTITCKANQNVGTTLAWYQQKPGKAPKALIYSASYRYSGVPDRFSGSGSGTDFTLTISSLQPEDFATYYCHQYTTYPLTFGGGTKVEIK
B10: Hu23F4-2 (antibody, V domains shown)
VH: EVQLVQSGAEVKKPGATVKISCKVSGYTFTSHYLHWVQQAPGKGLEWMGWIFPGDDKTKYNEKFKGRVTITADTSTDTAYMELSSLRSEDTAVYYCARGTKYLNWNFDVWGQGTTVTVSS
VL: DIQLTQSPSFLSASVGDRVTITCKANQNVGTTLAWYQQKPGKAPKALIYSASYRYSGVPSRFSGSGSGTEFTLTISSLQPEDFATYYCHQYTTYPLTFGGGTKVEIK
B11: Hu23F4-16 (antibody, V domains shown)
VH: EVQLVQSGAEVKKPGATVKISCKVSGYTFTSHYLHWVQQAPGKGLEWIGWIFPGDDKTKYNEKFKGRATLTSDTSTDTAYMELSSLRSEDTAVYYCARGTKYLNWNFDVWGQGTTVTVSS
VL: DIQLTQSPSFLSASVGDRVTITCKANQNVGTTLAWYQQKPGKSPKALIYSASYRYSGVPDRFSGSGSGTDFTLTISSLQPEDFATYFCHQYTTYPLTFGGGTKVEIK
B12: Hu23F4-4 (antibody, V domains shown)
VH: EVQLVQSGAEVKKPGATVKISCKVSGYTFTSHYLHWVQQAPGKGLEWMGWIFPGDDKTKYNEKFKGRVTITADTSTDTAYMELSSLRSEDTAVYYCARGTKYLNWNFDVWGQGTTVTVSS
VL: DIQLTQSPSFLSASVGDRVTITCKANQNVGTTLAWYQQKPGKSPKALIYSASYRYSGVPDRFSGSGSGTDFTLTISSLQPEDFATYFCHQYTTYPLTFGGGTKVEIK
B13: Hu23F4-3 (antibody, V domains shown)
VH: EVQLVQSGAEVKKPGATVKISCKVSGYTFTSHYLHWVQQAPGKGLEWMGWIFPGDDKTKYNEKFKGRVTITADTSTDTAYMELSSLRSEDTAVYYCARGTKYLNWNFDVWGQGTTVTVSS
VL: DIQLTQSPSFLSASVGDRVTITCKANQNVGTTLAWYQQKPGKAPKALIYSASYRYSGVPDRFSGSGSGTDFTLTISSLQPEDFATYYCHQYTTYPLTFGGGTKVEIK
B14: Hu23F4-20 (antibody, V domains shown)
VH: EVQLVQSGAEVKKPGASVKVSCKASGYTFTSHYLHWVRQAPGQGLEWMGWIFPGDDKTKYNEKFKGRVTMTRDTSISTAYMELSRLRSDDTAVYYCARGTKYLNWNFDVWGQGTTVTVSS
VL: DIQLTQSPSFLSASVGDRVTITCKANQNVGTTLAWYQQKPGKAPKLLIYSASYRYSGVPSRFSGSGSGTEFTLTISSLQPEDFATYYCHQYTTYPLTFGGGTKVEIK
B15: Hu23F4-8 (antibody, V domains shown)
VH: EVQLVQSGAEVKKPGATVKISCKVSGYTFTSHYLHWVQQAPGKGLEWMGWIFPGDDKTKYNEKFKGRVTITSDTSTDTAYMELSSLRSEDTAVYYCARGTKYLNWNFDVWGQGTTVTVSS
VL: DIQLTQSPSFLSASVGDRVTITCKANQNVGTTLAWYQQKPGKSPKALIYSASYRYSGVPDRFSGSGSGTDFTLTISSLQPEDFATYFCHQYTTYPLTFGGGTKVEIK
B16: Hu23F4-7 (antibody, V domains shown)
VH: EVQLVQSGAEVKKPGATVKISCKVSGYTFTSHYLHWVQQAPGKGLEWMGWIFPGDDKTKYNEKFKGRVTITSDTSTDTAYMELSSLRSEDTAVYYCARGTKYLNWNFDVWGQGTTVTVSS
VL: DIQLTQSPSFLSASVGDRVTITCKANQNVGTTLAWYQQKPGKAPKALIYSASYRYSGVPDRFSGSGSGTDFTLTISSLQPEDFATYYCHQYTTYPLTFGGGTKVEIK
B17: Hu23F4-12 (antibody, V domains shown)
VH: EVQLVQSGAEVKKPGATVKISCKVSGYTFTSHYLHWVQQAPGKGLEWMGWIFPGDDKTKYNEKFKGRATLTSDTSTDTAYMELSSLRSEDTAVYYCARGTKYLNWNFDVWGQGTTVTVSS
VL: DIQLTQSPSFLSASVGDRVTITCKANQNVGTTLAWYQQKPGKSPKALIYSASYRYSGVPDRFSGSGSGTDFTLTISSLQPEDFATYFCHQYTTYPLTFGGGTKVEIK
B18: Hu23F4-17 (antibody, V domains shown)
VH: EVQLVQSGAEVKKPGATVKISCKVSDYTLTSHYLHWVQQAPGKGLEWIGWIFPGDDKTKYNEKFKGRATLTSDTSTDTAYMELSSLRSEDTAVYYCARGTKYLNWNFDVWGQGTTVTVSS
VL: DIQLTQSPSFLSASVGDRVTITCKANQNVGTTLAWYQQKPGKAPKLLIYSASYRYSGVPSRFSGSGSGTEFTLTISSLQPEDFATYYCHQYTTYPLTFGGGTKVEIK
B19: Hu23F4-15 (antibody, V domains shown)
VH: EVQLVQSGAEVKKPGATVKISCKVSGYTFTSHYLHWVQQAPGKGLEWIGWIFPGDDKTKYNEKFKGRATLTSDTSTDTAYMELSSLRSEDTAVYYCARGTKYLNWNFDVWGQGTTVTVSS
VL: DIQLTQSPSFLSASVGDRVTITCKANQNVGTTLAWYQQKPGKAPKALIYSASYRYSGVPDRFSGSGSGTDFTLTISSLQPEDFATYYCHQYTTYPLTFGGGTKVEIK
B20: Hu23F4-14 (antibody, V domains shown)
VH: EVQLVQSGAEVKKPGATVKISCKVSGYTFTSHYLHWVQQAPGKGLEWIGWIFPGDDKTKYNEKFKGRATLTSDTSTDTAYMELSSLRSEDTAVYYCARGTKYLNWNFDVWGQGTTVTVSS
VL: DIQLTQSPSFLSASVGDRVTITCKANQNVGTTLAWYQQKPGKAPKALIYSASYRYSGVPSRFSGSGSGTEFTLTISSLQPEDFATYYCHQYTTYPLTFGGGTKVEIK
B21: Hu23F4-5 (antibody, V domains shown)
VH: EVQLVQSGAEVKKPGATVKISCKVSGYTFTSHYLHWVQQAPGKGLEWMGWIFPGDDKTKYNEKFKGRVTITSDTSTDTAYMELSSLRSEDTAVYYCARGTKYLNWNFDVWGQGTTVTVSS
VL: DIQLTQSPSFLSASVGDRVTITCKANQNVGTTLAWYQQKPGKAPKLLIYSASYRYSGVPSRFSGSGSGTEFTLTISSLQPEDFATYYCHQYTTYPLTFGGGTKVEIK

The target in the assay is recombinant human GM-CSF protein (human, UniProt P04141 18-144). The assay can be described thus: ELISA. Background: In an ELISA, binding on a coated surface is turned into a signal by an enzyme label.
Chain of recombinant human GM-CSF protein (P04141 18-144): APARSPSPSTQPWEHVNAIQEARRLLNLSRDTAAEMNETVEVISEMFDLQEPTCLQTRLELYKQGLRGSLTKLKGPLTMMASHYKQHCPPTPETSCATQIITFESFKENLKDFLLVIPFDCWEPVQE
Turning to B1, the EC50 amounted to 0.0585 nM. As for B2, the figure is 0.11 nM; as for B3, 0.151 nM.

In the case of B4, the EC50 came out at 0.116 nM. As for B5, the figure is 0.0871 nM; as for B6, 0.059 nM; as for B7, 0.0516 nM. The value for B8 was 0.0852 nM; that for B9 was 0.0787 nM. As for B10, the figure is 0.158 nM. For the molecule B11, the EC50 was found to be 0.0858 nM. As for B12, the figure is 0.0623 nM; as for B13, 0.0887 nM; as for B14, 0.0993 nM. The value for B15 was 0.0484 nM; that for B16 was 0.164 nM. As for B17, the figure is 0.226 nM; as for B18, 0.102 nM; as for B19, 0.171 nM. As for B20, the EC50 is 0.0508 nM.

For the molecule B21, the EC50 is 0.0585 nM.
